The values that follow come from patent publication US20240150402.

For data set [1], the target named is Final pools of substrates selected with recombinant human matriptase-1.
For data set [2], the target named is activatable antibodies comprising substrates selected for cleavage by uPA and matriptase (7 substrates tested), having the 3954 mask and C225v5 variant of cetuximab.
Data set [3] deals with activatable antibodies comprising substrates selected for cleavage by matriptase (5 substrates tested), having the 3954 mask and C225v5 variant of cetuximab.

B1: Human plasmin (protein)
chain: KVYLSECKTGNGKNYRGTMSKTKNGITCQKWSSTSPHRPRFSPATHPSEGLEENYCRNPDNDPQGPWCYTTDPEKRYDYCDILECEEECMHCSGENYDGKISKTMSGLECQAWDSQSPHAHGYIPSKFPNKNLKKNYCRNPDRELRPWCFTTDPNKRWELCDIPRCTTPPPSSGPTYQCLKGTGENYRGNVAVTVSGHTCQHWSAQTPHTHNRTPENFPCKNLDENYCRNPDGKRAPWCHTTNSQVRWEYCKIPSCDSSPVSTEQLAPTAPPELTPVVQDCYHGDGQSYRGTSSTTTTGKKCQSWSSMTPHRHQKTPENYPNAGLTMNYCRNPDADKGPWCFTTDPSVRWEYCNLKKCSGTEASVVAPPPVVLLPDVETPSEEDCMFGNGKGYRGKRATTVTGTPCQDWAAQEPHRHSIFTPETNPRAGLEKNYCRNPDGDVGGPWCYTTNPRKLYDYCDVPQCAAPSFDCGKPQVEPKKCPGRVVGGCVAHPHSWPWQVSLRTRFGMHFCGGTLISPEWVLTAAHCLEKSPRPSSYKVILGAHQEVNLEPHVQEIEVSRLFLEPTRKDIALLKLSSPAVITDKVIPACLPSPNYVVADRTECFITGWGETQGTFGAGLLKEAQLPVIENKVCNRYEFLNGRVQSTELCAGHLAGGTDSCQGDSGGPLVCFEKDKYILQGVTSWGLGCARPNKPGVYVRVSRFVTWIEGVMRNN
B1: the “cleavage (flow cytometry of displayed substrate pools)” value in data set [1] is listed as “but not by tPA or plasmin”.

B2: Human matriptase-1 (protein)
chain: GSDEKDCDCGLRSFTRQARVVGGTDADEGEWPWQVSLHALGQGHICGASLISPNWLVSAAHCYIDDRGFRYSDPTQWTAFLGLHDQSQRSAPGVQERRLKRIISHPFFNDFTFDYDIALLELEKPAEYSSMVRPICLPDASHVFPAGKAIWVTGWGHTQYGGTGALILQKGEIRVINQTTCENLLPQQITPRMMCVGFLSGGVDSCQGDSGGPLSSVEADGRIFQAGVVSWGDGCAQRNKPGVYTRLPLFRDWIKENTGV
On to B2, for which, in data set [1], the “cleavage (flow cytometry of displayed substrate pools)” value is on record as “The pools were cleaved by matriptase-1”. The kcat/KM entry is “from about 3,000 to 100,000 M^-1s^-1 for matriptase (7 substrates tested)” in data set [2] and “kcat/KM values ranging from about 6,500 to 100,000 M^-1s^-1 for matriptase (5 substrates tested)” in data set [3].

B3: Human tPA (protein)
chain: SYQVICRDEKTQMIYQQHQSWLRPVLRSNRVEYCWCNSGRAQCHSVPVKSCSEPRCFNGGTCQQALYFSDFVCQCPEGFAGKCCEIDTRATCYEDQGISYRGTWSTAESGAECTNWNSSALAQKPYSGRRPDAIRLGLGNHNYCRNPDRDSKPWCYVFKAGKYSSEFCSTPACSEGNSDCYFGNGSAYRGTHSLTESGASCLPWNSMILIGKVYTAQNPSAQALGLGKHNYCRNPDGDAKPWCHVLKNRRLTWEYCDVPSCSTCGLRQYSQPQFRIKGGLFADIASHPWQAAIFAKHRRSPGERFLCGGILISSCWILSAAHCFQERFPPHHLTVILGRTYRVVPGEEEQKFEVEKYIVHKEFDDDTYDNDIALLQLKSDSSRCAQESSVVRTVCLPPADLQLPDWTECELSGYGKHEALSPFYSERLKEAHVRLYPSSRCTSQHLLNRTVTDNMLCAGDTRSGGPQANLHDACQGDSGGPLVCLNDGRMTLVGIISWGLGCGQKDVPGVYTKVTNYLDWIRDNMRP
For B3, the “cleavage (flow cytometry of displayed substrate pool)” value with pool SMP17 is recorded as “resistance to tPA”. In addition, the “cleavage (flow cytometry of displayed substrate pools)” value in data set [1] was “but not by tPA or plasmin”.
